Publication PMC6797848, “A TBR1-K228E Mutation Induces Tbr1 Upregulation, Altered Cortical Distribution of Interneurons, Increased Inhibitory Synaptic Transmission, and Autistic-Like Behavioral Deficits in Mice”
Positions count from the first letter of the chain named.

How the values were obtained:
Settings in all cases: protein: recombinant; tags: N-terminal His6 removed by thrombin (pET28a, NdeI/HindIII); label: 5'-biotin on strand 1
TBR1 T-box domain N374H = target: T1, TBR1 T-box domain N374H (human, UniProt Q16650 200-400, N374H); assay: BLI; n=3; stated as no effect on affinity; Kd only plotted in figure; BLI (BLITZ, streptavidin sensor): kinetic buffer 20 mM HEPES pH 7.5, 100 mM NaCl, 25 C (stated for sensor hydration/equilibration); protein stock in 20 mM HEPES pH 7.5, 150 mM NaCl, 5 mM MgCl2
T1 sequence: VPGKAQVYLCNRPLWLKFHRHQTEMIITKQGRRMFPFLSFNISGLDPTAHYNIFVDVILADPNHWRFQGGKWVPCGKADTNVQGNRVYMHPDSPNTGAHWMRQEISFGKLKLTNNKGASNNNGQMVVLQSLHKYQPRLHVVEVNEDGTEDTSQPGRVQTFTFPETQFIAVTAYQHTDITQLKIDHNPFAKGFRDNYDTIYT

TBR1 T-box domain K228E = target: T2, TBR1 T-box domain K228E (human, UniProt Q16650 200-400, K228E); assay: BLI; n=3; Kd only plotted in figure; BLI (BLITZ, streptavidin sensor): kinetic buffer 20 mM HEPES pH 7.5, 100 mM NaCl, 25 C (stated for sensor hydration/equilibration); protein stock in 20 mM HEPES pH 7.5, 150 mM NaCl, 5 mM MgCl2
T2 sequence: T1 sequence with K29E, H175N

[1] = target: T3, TBR1 T-box domain WT (hTBR1DBD) (human, UniProt Q16650 200-400); assay: BLI; protein 2.5-10 uM; Kd only plotted in figure; BLI (BLITZ, streptavidin sensor): kinetic buffer 20 mM HEPES pH 7.5, 100 mM NaCl, 25 C (stated for sensor hydration/equilibration); protein stock in 20 mM HEPES pH 7.5, 150 mM NaCl, 5 mM MgCl2
T3 sequence: T1 sequence with H175N

B1: Grin2b-promoter probe (dsDNA)
DNA 1: TATATAGGTTGAGTGGCACGTTCCTGGGTGTGAGACC
DNA 2: GGTCTCACACCCAGGAACGTGCCACTCAA
TBR1 T-box domain N374H
  binding signal: ~1 fold Kd vs WT
TBR1 T-box domain K228E
  binding signal: ~3 fold increase in Kd vs WT
[1]
  binding result: binds
